Assay [1] deals with 9×SBE-6×OSE2-OC-luc reporter construct in 2T3 C-17 cells. Briefly: Luciferase assay, 9×SBE-6×OSE2-OC-luc reporter stably transfected in 2T3 clone C-17. More on the design: Luciferase Activity: unit not given here. As to conditions: for Effect on luciferase activity of the reporter construct: 2T3 C-17 cells. In kind it is cell-based. As for the experimental part:
(§1) An oligonucleotide containing 9 copies of Smad1 response element (9×SBE) and 6 copies of Cbfa1 response element (6×OSE2) was synthesized in the DNA laboratory at University of Texas Health Science Center at San Antonio. The osteocalcin basal promoter (OC, −155/+1) was amplified by Polymerase Chain Reaction (PCR) using mouse genomic DNA as a template and cloned into pGL3 vector. An 9×SBE-6×OSE2 oligonucleotide was cloned upstream of osteocalcin basal promoter.
(§2) C2C12 and 2T3 cells were plated in 6-well culture plates at densities of 4×10^5 and 2×10^5 cells/well and cultured with DMEM or α minimal essential medium (α MEM) supplemented with 10% FCS for 24 hours. A 9×SBE-6×OSE2-OC-luc-reporter construct (2 μg/well) was co-transfected with pcDNA3 empty vector (0.2 mg/well) in C2C12 and 2T3 cells using lipofactamine plus reagents (Gibco/BRL). Forty eight hours later, G418 (200 μg/ml) was added to the culture plates. Four weeks after G418 selection, the G418 resistant cells were plated in 96-well plates at the density of 1 cell/well and cloned by limiting dilution method.
(§3) C2C12 and 2T3 cells, in which 9×SBE-6×OSE2-OC-luc-reporter construct was stably transfected, were plated in 96-well culture plates at densities of 1×10^4 and 0.5×10^4 cells/well and cultured for 24 hours. The medium was changed to fresh medium supplemented with 2% FCS and different growth factors or hormone were added to culture medium for 24 hours or different compounds were added to culture medium for 2, 6, 12, 24 and 48 hours. The cell lysates were extracted and luciferase activities were determined by luciferase assay kit (Promega, Madison, Wis.) using a Luminometer.
(§4) At the end of the incubation, the cell lysates were extracted using lysis buffer and luciferase activities were measured using a luciferase assay kit (Promega).

Assay [2] concerns BMP production in MG-63 cells. Briefly: Conditioned medium of treated MG-63 cells tested on 2T3 C-17 reporter cells. In kind it is cell-based, human. The conditions noted are these: MG-63 treated 1 and 5 hours, washed, 24 hour CM; 2T3 C-17 treated with CM 48 hours. The protocol:
2T3 C-17 cells were then treated with said CM for 48 hours.

For assay [3], the system named is 9×SBE-6×OSE2-OC-luc reporter construct in C2C12 C-10-62 cells. Put plainly: Luciferase assay, 9×SBE-6×OSE2-OC-luc reporter stably transfected in C2C12 clone C-10-62. In kind it is cell-based. The conditions noted are these: 24 hours. The protocol: as §1, §2, §3, §4
The test system of assay [4] is 9×SBE-6×OSE2-OC-luc reporter construct. Briefly: Luciferase assay, 9×SBE-6×OSE2-OC-luc reporter construct, cells not specified. In kind it is cell-based. The conditions noted are these: stimulation of luciferase activity; stated for C2C12 C-10-62 and 2T3 C-17 without distinction.
Excerpt: as §1, §3
Further, a reporter construct which contains multiple copies of both Smad1 (SBE) and Cbfa1 (OSE2) response elements (9×SBE-6×OSE2-OC-luc) was made.

Setting [5] is: Epoxomicin 0.0156 μM, cell type not given.
Setting [6] is: Epoxomicin 0.0625 μM, cell type not given.
Where [7] appears, read: Epoxomicin 0.125 μM, cell type not given.
Setting [8] is: Epoxomicin 0.25 μM, cell type not given.
The mark [9] stands for this setting: Epoxomicin 0.5 μM, cell type not given.
[10] abbreviates: Epoxomicin 1 μM, cell type not given.
Setting [11] is: BMP-7 1.95 ng/ml, 24 hours, 2T3 clone 17.
The mark [12] stands for this setting: BMP-7 3.91 ng/ml, 24 hours, 2T3 clone 17.
Setting [13] is: BMP-7 7.81 ng/ml, 24 hours, 2T3 clone 17.
The mark [14] stands for this setting: BMP-7 15.625 ng/ml, 24 hours, 2T3 clone 17.
Where [15] appears, read: BMP-7 31.25 ng/ml, 24 hours, 2T3 clone 17.
Where [16] appears, read: BMP-7 62.5 ng/ml, 24 hours, 2T3 clone 17.
Setting [17] is: BMP-7 125 ng/ml, 24 hours, 2T3 clone 17.
[18] abbreviates: BMP-7 250 ng/ml, 24 hours, 2T3 clone 17.
[19] abbreviates: BMP-7 500 ng/ml, 24 hours, 2T3 clone 17.
Setting [20] is: BMP-7 1000 ng/ml, 24 hours, 2T3 clone 17.
The mark [21] stands for this setting: BMP-4 0.049 ng/ml, 24 hours, 2T3 clone 17.
[22] abbreviates: BMP-4 0.098 ng/ml, 24 hours, 2T3 clone 17.
The mark [23] stands for this setting: BMP-4 0.195 ng/ml, 24 hours, 2T3 clone 17.
Setting [24] is: BMP-4 0.39 ng/ml, 24 hours, 2T3 clone 17.
Setting [25] is: BMP-4 0.78 ng/ml, 24 hours, 2T3 clone 17.
The mark [26] stands for this setting: BMP-4 1.56 ng/ml, 24 hours, 2T3 clone 17.
The mark [27] stands for this setting: BMP-4 3.125 ng/ml, 24 hours, 2T3 clone 17.
The mark [28] stands for this setting: BMP-4 6.25 ng/ml, 24 hours, 2T3 clone 17.
[29] abbreviates: BMP-4 12.5 ng/ml, 24 hours, 2T3 clone 17.
[30] abbreviates: BMP-4 25 ng/ml, 24 hours, 2T3 clone 17.
[31] abbreviates: BMP-4 50 ng/ml, 24 hours, 2T3 clone 17.
Setting [32] is: BMP-4 100 ng/ml, 24 hours, 2T3 clone 17.

With `CC[C@H](C)[C@H](NC(=O)[C@H]([C@@H](C)CC)N(C)C(C)=O)C(=O)N[C@H](C(=O)N[C@@H](CC(C)C)C(=O)[C@@]1(C)CO1)[C@@H](C)O` [Epoxomicin, epoxomicin, reference compound], the “Luciferase Activity” value in assay [1] (setting [5]) was 0.041; in assay [1] (setting [6]) it was 0.064; in assay [1] (setting [7]) it was 0.098; in assay [1] (setting [8]) it was 0.142; in assay [1] (setting [9]), 0.153; in assay [1] (setting [10]), 0.120. In addition, the “Luciferase Activity (fold increase)” value is recorded as 1.0 fold in assay [1] (setting [5]); 1.6 fold in assay [1] (setting [6]); 2.4 fold in assay [1] (setting [7]); 3.5 fold in assay [1] (setting [8]); 3.7 fold in assay [1] (setting [9]); 2.9 fold in assay [1] (setting [10]). In addition, the “Effect of 24 hour conditioned medium of treated MG-63 cells on the reporter construct” value in assay [2] is listed as “CM stimulated the reporter construct in a concentration-dependent manner”.

B1: BMP-7: Bone morphogenetic protein 7 (protein, UniProt P18075 293-431, looked up)
Bone morphogenetic protein 7: STGSKQRSQNRSKTPKNQEALRMANVAENSSSDQRQACKKHELYVSFRDLGWQDWIIAPEGYAAYYCEGECAFPLNSYMNATNHAIVQTLVHFINPETVPKPCCAPTQLNAISVLYFDDSSNVILKKYRNMVVRACGCH
As for B1, the “Effect on luciferase activity of the reporter construct” value in assay [1] (24 hours) and in assay [3] was “stimulated luciferase activity in a dose-dependent manner” throughout. Besides, the “Luciferase Activity” value in assay [1] (setting [11]) came to 0.076; in assay [1] (setting [12]) it was 0.090; in assay [1] (setting [13]) it was 0.108; in assay [1] (setting [14]) it was 0.148; in assay [1] (setting [15]), 0.216; in assay [1] (setting [16]) it was 0.374. The “Luciferase Activity” value in assay [1] (setting [17]) was found to be 0.813; in assay [1] (setting [18]), 1.425; in assay [1] (setting [19]), 2.224; in assay [1] (setting [20]), 3.404. In addition, the “Luciferase Activity (fold increase)” value in assay [1] (setting [11]) was found to be 1.1 fold; in assay [1] (setting [12]), 1.3 fold; in assay [1] (setting [13]) it was 1.6 fold; in assay [1] (setting [14]), 2.2 fold; in assay [1] (setting [15]), 3.2 fold; in assay [1] (setting [16]), 5.6 fold. In addition, the “Luciferase Activity (fold increase)” value in assay [1] (setting [17]) turned out to be 12.1 fold; in assay [1] (setting [18]) it was 21.3 fold; in assay [1] (setting [19]), 33.2 fold; in assay [1] (setting [20]), 50.8 fold. The Minimal effective dose in assay [4] lay within 15 to 30 ng/mL.

B2: BMP-4: Bone morphogenetic protein 4 (protein, UniProt P12644 293-408, looked up)
Bone morphogenetic protein 4: SPKHHSQRARKKNKNCRRHSLYVDFSDVGWNDWIVAPPGYQAFYCHGDCPFPLADHLNSTNHAIVQTLVNSVNSSIPKACCVPTELSAISMLYLDEYDKVVLKNYQEMVVEGCGCR
Consider B2, for which the “Effect on luciferase activity of the reporter construct” value in assay [1] (24 hours) and in assay [3] was “stimulated luciferase activity in a dose-dependent manner” in each case. Moreover, the “Luciferase Activity” value in assay [1] (setting [21]) was found to be 0.0745; in assay [1] (setting [22]) it was 0.111; in assay [1] (setting [23]), 0.141; in assay [1] (setting [24]) it was 0.384; in assay [1] (setting [25]), 0.597; in assay [1] (setting [26]), 0.821. Moreover, the “Luciferase Activity” value was determined as 1.064 in assay [1] (setting [27]); 1.256 in assay [1] (setting [28]); 1.534 in assay [1] (setting [29]); 1.576 in assay [1] (setting [30]); 1.887 in assay [1] (setting [31]); 2.166 in assay [1] (setting [32]). Further, the “Luciferase Activity (fold increase)” value stood at 1.6 fold in assay [1] (setting [21]); 2.3 fold in assay [1] (setting [22]); 2.9 fold in assay [1] (setting [23]); 8.0 fold in assay [1] (setting [24]); 12.4 fold in assay [1] (setting [25]); 17.1 fold in assay [1] (setting [26]). Besides, the “Luciferase Activity (fold increase)” value in assay [1] (setting [27]) is 22.2 fold; in assay [1] (setting [28]) it was 26.2 fold; in assay [1] (setting [29]), 32.0 fold; in assay [1] (setting [30]), 32.8 fold; in assay [1] (setting [31]) it was 39.3 fold; in assay [1] (setting [32]), 45.1 fold. In addition, the Minimal effective dose in assay [4] is 0.1 to 0.2 ng/mL.

The values are drawn from patent US20040009511A1, “Identification of compounds which stimulate bone formation using a cell-based screening assay targeting BMP signaling” (priority 2002, published 2004).
